Assay [1] has as its target HLA-A*26:01. The assay is described as follows: IEDB peptide-MHC binding, purified MHC/competitive/fluorescence; filed as Kd, often an IC50 or EC50 that approximates it; ≥ and ≤ were set here for values at or beyond the usual limits of such assays. To be noted: source organism: Escherichia coli 536.
Assay [2] has as its target HLA-A*29:02. The description is as above. Conditions: source organism: Escherichia coli 536.
Assay [3] addresses HLA-A*02:16. Described as above. Conditions: source organism: Escherichia coli 536.
The target of assay [4] is HLA-B*18:01. The description is as above.
The target in assay [5] is HLA-A*68:02. The description is as above. Conditions: source organism: Escherichia coli 536.
Assay [6] has as its target HLA-B*51:01. The description is as above.
The target in assay [7] is HLA-A*24:03. Described as above. Conditions: source organism: Escherichia coli 536.
Assay [8] addresses HLA-A*69:01. The description is as above.
The target of assay [9] is HLA-A*03:01. The assay is described as above. To be noted: source organism: Escherichia coli 536.
The target of assay [10] is HLA-B*15:17. The assay is described as above. To be noted: source organism: Escherichia coli 536.
Assay [11] concerns the target HLA-B*57:01. Described as above.
Assay [12] addresses HLA-A*02:01. The description is as above.
Assay [13] addresses HLA-A*02:03. The assay is described as above. Conditions: source organism: Escherichia coli 536.
Assay [14] deals with HLA-A*02:12. The assay is described as above. To be noted: source organism: Escherichia coli 536.
For assay [15], the target named is HLA-B*15:01. The description is as above. To be noted: source organism: Escherichia coli 536.
Assay [16] addresses HLA-B*46:01. The assay is described as above.
The target in assay [17] is HLA-A*02:19. The assay is described as above. Conditions: source organism: Escherichia coli 536.
In assay [18] the target is HLA-B*39:01. The description is as above.
For assay [19], the target named is HLA-A*23:01. The assay is described as above.
The target in assay [20] is HLA-A*02:11. The description is as above. Conditions: source organism: Escherichia coli 536.
Assay [21] addresses HLA-B*27:03. Described as above.
In assay [22] the target is HLA-B*07:02. The assay is described as follows: IEDB peptide-MHC binding, purified MHC/direct/fluorescence; filed as Kd, often an IC50 or EC50 that approximates it; ≥ and ≤ were set here for values at or beyond the usual limits of such assays. To be noted: source organism: Mycobacterium tuberculosis variant bovis BCG str. Pasteur 1173P2.
Assay [23] addresses HLA-B*35:01. The assay is described as follows: IEDB peptide-MHC binding, purified MHC/competitive/fluorescence; filed as Kd, often an IC50 or EC50 that approximates it; ≥ and ≤ were set here for values at or beyond the usual limits of such assays.
Assay [24] has as its target HLA-A*26:01. The experiment in a line: IEDB peptide-MHC binding, purified MHC/direct/fluorescence; filed as Kd, often an IC50 or EC50 that approximates it; ≥ and ≤ were set here for values at or beyond the usual limits of such assays.
For assay [25], the target named is HLA-A*02:16. Described as above.
Assay [26] addresses HLA-A*68:02. Described as above.
Assay [27] addresses HLA-A*24:03. The assay is described as above.
In assay [28] the target is HLA-A*03:01. The assay is described as above.
For assay [29], the target named is HLA-A*02:03. Described as above.
The target of assay [30] is HLA-A*02:12. The assay is described as above.
Assay [31] deals with HLA-A*01:01. Described as above. To be noted: source organism: Ebola virus - Gabon (1994-1997).
Assay [32] addresses HLA-A*02:19. The description is as above.
Assay [33] deals with HLA-A*23:01. Described as above.
In assay [34] the target is HLA-A*02:11. The description is as above.
Assay [35] deals with HLA-A*29:02. The assay is described as above. Conditions: source organism: Orthohantavirus andesense.
Assay [36] deals with HLA-C*03:03. The description is as above. To be noted: source organism: Escherichia coli O157:H7 str. EDL933.
Assay [37] has as its target HLA-C*05:01. The description is as above. Conditions: source organism: Escherichia coli O157:H7 str. EDL933.
[38] abbreviates: source organism: Escherichia coli 536.
Setting [39] is: source organism: Mycobacterium tuberculosis C.
[40] abbreviates: source organism: Zaire ebolavirus.
[41] abbreviates: source organism: Orthohantavirus andesense.

Some results are limits rather than exact numbers.

Take QTDNDIWFW: the Kd in assay [1], in assay [2], in assay [3], in assay [4] (setting [38]), in assay [5] and in assay [6] (setting [38]) was not below 20 µM in each case. In addition, the Kd (commonly a measure of binding affinity in units of concentration) in assay [7] was not below 20 µM; in assay [8] (setting [38]) it was not below 20 µM; in [9] it was not below 20 µM; in [10], not below 20 µM; in assay [11] (setting [38]) it was 0.881 µM; in assay [12] (setting [38]), not below 20 µM. Also, the Kd in assay [13], in [14], in assay [15], in [16] (setting [38]), in assay [17] and in assay [18] (setting [38]) was not below 20 µM in each case. In addition, the Kd in assay [19] (setting [38]), in assay [20] and in assay [21] (setting [38]) was not below 20 µM throughout.
As for WPVLGSEVL, the equilibrium dissociation constant (Kd) was 0.223 µM in assay [22], not below 20 µM in [6] (setting [39]) and not above 0.0001 µM in assay [23] (setting [39]).
TAAIMLASY: the Kd is 1.29 µM in assay [24] (source organism: Ebola virus - Gabon (1994-1997)); not below 20 µM in assay [25] (setting [40]); not below 20 µM in assay [26] (setting [40]); not below 20 µM in assay [27] (setting [40]); not below 20 µM in [28] (setting [40]); not below 20 µM in [29] (setting [40]). Moreover, the Kd in assay [30] (setting [40]), in assay [31], in assay [32] (setting [40]), in assay [33] (setting [40]), in assay [34] (setting [40]) and in assay [6] (setting [40]) was not below 20 µM in each case. Also, the dissociation constant (Kd) in assay [8] (setting [40]) is not below 20 µM; in [23] (setting [40]), 0.0002 µM; in assay [12] (setting [40]), not below 20 µM; in assay [18] (setting [40]) it was not below 20 µM; in [21] (setting [40]), not below 20 µM.
DAVEDFLAF: the dissociation constant Kd was 0.0126 µM in assay [24] (setting [41]); not below 20 µM in assay [35]; not below 20 µM in assay [25] (setting [41]); not below 20 µM in [26] (setting [41]); not below 20 µM in [27] (setting [41]); not below 20 µM in assay [28] (setting [41]). Also, the Kd in assay [29] (setting [41]), in [30] (setting [41]), in [32] (setting [41]), in [33] (setting [41]), in assay [34] (setting [41]) and in assay [4] (setting [41]) was not below 20 µM throughout. Also, the Kd in assay [6] (setting [41]) was not below 20 µM; in assay [8] (setting [41]), not below 20 µM; in assay [11] (setting [41]), not below 20 µM; in assay [23] (setting [41]) it was not above 0.0001 µM; in assay [12] (setting [41]) it was not below 20 µM; in [16] (setting [41]), not below 20 µM. In addition, the Kd in assay [18] (setting [41]) and in assay [21] (setting [41]) was not below 20 µM each time.
YVLNGYTEF: the Kd was 0.06 µM in assay [36], 0.037 µM in assay [37] and not above 0.001 µM in assay [19] (source organism: Escherichia coli O157:H7 str. EDL933).

(Values after the Immune Epitope Database (IEDB).)
